The results in this text go back to US20100135991A1 (published 2010).

In experiment [1] the target is T1, zinc-binding alcohol dehydrogenase domain containing 2 (UniProt Q8N4Q0 1-377, limits assumed).
T1 construct: also called unrelated protein
T1 sequence (looked up): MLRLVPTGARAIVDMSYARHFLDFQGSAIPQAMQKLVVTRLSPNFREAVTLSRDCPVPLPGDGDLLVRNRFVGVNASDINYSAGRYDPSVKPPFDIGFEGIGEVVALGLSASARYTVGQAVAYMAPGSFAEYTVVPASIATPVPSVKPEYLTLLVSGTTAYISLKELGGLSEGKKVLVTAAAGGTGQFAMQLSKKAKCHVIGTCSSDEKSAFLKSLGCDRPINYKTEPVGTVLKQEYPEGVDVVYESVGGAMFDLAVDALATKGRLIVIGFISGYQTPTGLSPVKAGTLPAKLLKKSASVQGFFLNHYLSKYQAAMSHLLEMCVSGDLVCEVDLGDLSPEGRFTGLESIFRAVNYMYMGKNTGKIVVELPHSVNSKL
Description: Western blot. The procedure:
Western blot was performed to confirm the binding specificity of antibody 3B6.1, 6A4.28 and 9A6.2. […] The amino acid sequences of the heavy and light chain variable region of antibody 3B6.1 (IgM, K), 6A4.28 (IgM, K) and 9A6.2 (IgM, K) are shown in FIGS. 3A and 3B, 4A and 4B, and 5A and 5B, respectively.

Experiment [2] addresses T2, human ORP150-3x Flag with deletion of amino acids 673-752 (human, UniProt Q9Y4L1 33-999).
T2 construct: Deletion mutant made by overlapping PCR, expressed in Flp-In CHO cells
T2 sequence: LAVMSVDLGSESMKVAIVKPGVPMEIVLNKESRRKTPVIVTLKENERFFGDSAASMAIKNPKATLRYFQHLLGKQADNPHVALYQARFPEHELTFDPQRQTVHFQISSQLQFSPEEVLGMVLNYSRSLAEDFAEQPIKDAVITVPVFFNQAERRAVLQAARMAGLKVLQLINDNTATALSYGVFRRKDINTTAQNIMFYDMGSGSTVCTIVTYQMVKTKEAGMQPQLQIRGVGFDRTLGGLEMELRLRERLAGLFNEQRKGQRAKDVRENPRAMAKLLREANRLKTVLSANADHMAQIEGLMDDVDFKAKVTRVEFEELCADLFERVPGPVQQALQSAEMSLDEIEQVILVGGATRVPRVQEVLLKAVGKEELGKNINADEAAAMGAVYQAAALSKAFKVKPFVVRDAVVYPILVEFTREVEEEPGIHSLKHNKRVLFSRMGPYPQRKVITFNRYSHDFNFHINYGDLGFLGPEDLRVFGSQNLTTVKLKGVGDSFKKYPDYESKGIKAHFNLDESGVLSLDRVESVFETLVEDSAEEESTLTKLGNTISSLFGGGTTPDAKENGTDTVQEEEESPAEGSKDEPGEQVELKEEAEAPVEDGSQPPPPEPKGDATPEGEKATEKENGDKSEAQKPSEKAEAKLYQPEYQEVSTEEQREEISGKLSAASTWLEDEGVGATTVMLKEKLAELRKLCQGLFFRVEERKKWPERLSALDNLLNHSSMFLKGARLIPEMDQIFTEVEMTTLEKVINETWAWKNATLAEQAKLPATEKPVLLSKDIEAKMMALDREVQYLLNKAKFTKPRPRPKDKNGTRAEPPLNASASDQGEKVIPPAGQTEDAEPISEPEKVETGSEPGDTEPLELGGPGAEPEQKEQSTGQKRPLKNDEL
Description: anti-FLAG capture ELISA and Western blot. The procedure:
(§1) Binding of 5F4 to the ORP150 wild type or mutant proteins generated from the supernatant of the transfected cells were tested using ELISA assay by coating the surface with anti-FLAG antibody, allowing binding of the ORP150 proteins in the supernatant to the anti-FLAG antibody, and detecting binding of 5F4 to the ORP150 proteins.
(§2) Binding of 5F4 to the wild type or the mutant ORP150 proteins from the supernatant and cell lysates was also tested using Western blot assays by immunoprecipitation the ORP150 proteins from the supernatant or cell lysates using anti-FLAG antibody, and detecting binding of 5F4 to the ORP150 proteins on the Western blot. The anti-Flag M2 affinity gel (Sigma, Cat. No. A2220) was used to immuno-precipitate the recombinant human ORP150 from the supernatant and cell lysates of the transfected cells. The IP products were subjected to SDS-PAGE and then transferred onto nitrocellulose membrane for Western blotting. […] The blotting signal was detected with Immobilon Western-Chemiluminescent HRP Substrate kits (Millipore, Cat. No. WBKLS0500)
(§3) Based on the Western blotting with anti-FLAG antibody, all the deletion mutants of hORP150 were successfully expressed in Flp-In™ CHO Cells. […] To further characterize the epitope, additional mutant ORP150 proteins were generated. […]

The target in experiment [3] is T3, human ORP150-3x Flag with deletion of amino acids 723-732 (human, UniProt Q9Y4L1 33-999).
T3 sequence: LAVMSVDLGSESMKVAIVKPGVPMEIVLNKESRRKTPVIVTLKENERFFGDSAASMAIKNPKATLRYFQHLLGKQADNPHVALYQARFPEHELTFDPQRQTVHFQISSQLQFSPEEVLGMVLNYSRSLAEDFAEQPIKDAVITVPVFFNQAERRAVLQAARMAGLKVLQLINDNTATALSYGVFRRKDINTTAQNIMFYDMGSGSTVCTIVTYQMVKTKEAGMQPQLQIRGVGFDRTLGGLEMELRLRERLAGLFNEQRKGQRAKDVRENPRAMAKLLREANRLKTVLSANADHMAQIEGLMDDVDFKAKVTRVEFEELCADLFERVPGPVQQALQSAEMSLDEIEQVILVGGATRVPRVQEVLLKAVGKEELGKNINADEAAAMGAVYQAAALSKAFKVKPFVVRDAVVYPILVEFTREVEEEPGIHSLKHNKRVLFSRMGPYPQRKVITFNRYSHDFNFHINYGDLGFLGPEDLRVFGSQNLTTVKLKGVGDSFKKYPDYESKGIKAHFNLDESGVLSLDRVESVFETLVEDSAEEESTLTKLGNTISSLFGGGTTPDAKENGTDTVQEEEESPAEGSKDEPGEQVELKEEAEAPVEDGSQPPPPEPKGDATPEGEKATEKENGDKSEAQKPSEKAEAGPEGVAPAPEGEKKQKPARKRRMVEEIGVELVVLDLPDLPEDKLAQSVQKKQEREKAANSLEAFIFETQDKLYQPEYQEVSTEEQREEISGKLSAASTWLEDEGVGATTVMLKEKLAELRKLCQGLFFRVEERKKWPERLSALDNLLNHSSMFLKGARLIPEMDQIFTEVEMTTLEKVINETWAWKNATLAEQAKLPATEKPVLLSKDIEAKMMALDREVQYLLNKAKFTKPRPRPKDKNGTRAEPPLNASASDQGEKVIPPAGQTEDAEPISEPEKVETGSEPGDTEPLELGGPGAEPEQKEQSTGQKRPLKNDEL
Description: anti-FLAG capture ELISA and Western blot. The procedure: as §1, §2, §3

B1: antibody 9A6.2 (antibody, mouse IgM, V domains shown)
VH: EVKLVESGGGLVKPGGSLKLSCAASGFTFSSYAMSWVRQTPEKRLEWVASISSGGSTYYPDSVKGRFTISRDNARNILYLQMSSLRSEDTAMYYCARGRGYYAYYFDYWGQGTTLTVSS
VL: ETTVTQSPASLSVATGEKVTIRCITSTDIDDDMNWYQQKPGEPPKLLISEGNTLRPGVPSRFSSSGYGTDFVFTIENTLSEDVADYYCLQSDNMPFTFGSGTKLEIK
notes: Mouse IgM, kappa
Turning to B1, the binding result in experiment [1] is given as “no binding”.

B2: monoclonal antibody 5F4 (antibody, mouse IgM, V domains shown)
VH: QIQLVQSGPELKKPGETVKISCKASDYTFTDYSMHWVKQAPGKGLKWMGWINTETGEPTYADDFKGRFAFPLETSASTAYLQINNLKNEDTATYFCARNHGYNLAYWGQGTLVTVSA
VL: DIVMTQSQKFMSTSVGDRVSLTCKSSQNVRTAVTWYQQKPGQSPKALIYLASNRHTGVPDRFTGSGSGTDFTLTISNVQSEDLADYFCLQHWNYPLTFGGGTKLEIK
notes: Mouse IgM, kappa, from a hybridoma; also called m5F4; murine 5F4
Regarding B2, the binding result in experiment [2] and in experiment [3] was “no binding” throughout.
